Assays:
[1] = target: T1, IL-33 mutant protein K70A (human, UniProt O95760 112-270); experiment: ELISA as Example 9; row K70A against WT-3
T1 construct: Prokaryotic expression
T1 chain: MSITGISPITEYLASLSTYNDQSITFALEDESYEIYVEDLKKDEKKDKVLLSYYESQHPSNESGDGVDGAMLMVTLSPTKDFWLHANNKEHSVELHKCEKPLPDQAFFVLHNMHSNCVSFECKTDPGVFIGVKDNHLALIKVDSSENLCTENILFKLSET
Procedure: (§1) SA protein was diluted to 2 μg/mL to coat ELISA plate at 100 μL/well overnight at 4° C. The plate was washed with PBST (PBS containing 0.05% Tween20) for 3 times, and blocked with 2% BSA prepared in PBS at 200 μL/well, at room temperature for 2 h. After the plate was washed twice with PBST, IL-33-his-biotin protein was diluted to 1 μg/mL with 1% BSA prepared in PBST, and was added to ELISA plate at 100 μL/well. The plate was incubated at room temperature for 1 h, and each monoclonal antibody was diluted with 1% BSA prepared in PBST in a 3-fold gradient. The highest concentration of antibody was 10 μg/mL, and the antibody was diluted for 12 gradients. Each diluted monoclonal antibody was added to ELISA wells with 100 μL/well, and the plate was incubated at room temperature for 1 h. Each sample was added to duplicate wells in parallel. The plate was washed with PBST for 3 times, and HRP-anti human IgG Fc secondary antibody prepared with PBST was diluted at an appropriate ratio, and was added to ELISA wells at 100 μL/well. […] Each reaction solution was shaken uniformly and OD450 nm was read on a microplate reader. The data was analyzed and EC₅₀ was calculated.
(§2) Subsequently, according to the experimental method of Example 9, the affinity of the above mutant proteins to 874F7-Hu1 was determined, and IL-33 proteins (WT-1, WT-2, WT-3, and WT-4) without any mutation were set as controls.

[2] = target: T2, IL-33 protein without any mutation (WT) (human, UniProt O95760 112-270); experiment: ELISA as Example 9; row WT-4
T2 construct: Control of the alanine scan (four runs WT-1 to WT-4); also called WT-1; WT-2
T2 sequence: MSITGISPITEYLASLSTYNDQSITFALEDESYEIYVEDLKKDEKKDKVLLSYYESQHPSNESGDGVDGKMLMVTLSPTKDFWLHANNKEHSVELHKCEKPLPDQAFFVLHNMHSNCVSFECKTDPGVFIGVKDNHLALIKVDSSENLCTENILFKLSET
Procedure: as §1, §2

[3] = target: T3, IL-33 mutant protein V49A (human, UniProt O95760 112-270); experiment: ELISA as Example 9; row V49A against WT-2
T3 construct: Prokaryotic expression
T3 chain: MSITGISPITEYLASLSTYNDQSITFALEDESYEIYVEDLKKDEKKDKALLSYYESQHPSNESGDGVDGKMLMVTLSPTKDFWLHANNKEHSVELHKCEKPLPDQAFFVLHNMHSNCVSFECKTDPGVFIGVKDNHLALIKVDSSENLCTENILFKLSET
Procedure: as §1, §2

[4] = target: T4, IL-33 mutant protein P59A (human, UniProt O95760 112-270); experiment: ELISA as Example 9; row P59A
T4 construct: Prokaryotic expression
T4 chain: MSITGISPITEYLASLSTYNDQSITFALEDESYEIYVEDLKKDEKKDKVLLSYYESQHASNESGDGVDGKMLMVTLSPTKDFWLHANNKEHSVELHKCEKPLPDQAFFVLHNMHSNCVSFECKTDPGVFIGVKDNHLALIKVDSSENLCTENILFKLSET
Procedure: as §1, §2

Human IL-33-his = target: T5, Human IL-33-his (human, UniProt O95760 112-270, biotinylated with EZ-Link NHS-Biotin where used as IL-33-his-biotin); experiment: SPR Biacore 8K, antibody captured on Protein A/G chip, IL-33-his as analyte, 1:1 model
T5 construct: Used plain (SPR, cell assays) and biotinylated (ELISA); also called IL-33-his-biotin
T5 sequence: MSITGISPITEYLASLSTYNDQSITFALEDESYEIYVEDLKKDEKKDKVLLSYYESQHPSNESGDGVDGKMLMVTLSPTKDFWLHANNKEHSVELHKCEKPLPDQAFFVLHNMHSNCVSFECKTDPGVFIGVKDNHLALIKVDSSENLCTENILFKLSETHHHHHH
Procedure: A chip with covalently coupled Protein A/G (purchased from GE Healthcare, catalog number BR-1005-30) was used to capture each antibody to be tested, and the relevant operating parameters were as follows: The antibody concentration was […], the contact time was 75 s, the flow rate was […], and the regeneration contact time was 30 s. The IL-33-his antigen was diluted with HBS-EP pH7.4 buffer solution (purchased from GE Healthcare, catalog number BR-1006-69). The maximum concentration was 50 nM, and diluted to 0.39 nM by two-fold dilution. Duplicate wells and 0 concentration point well were set, and 6M guanidine hydrochloride solution was used as the regeneration buffer. The sample was injected on Biacore 8K according to the following parameters, the binding time was 180 s, the dissociation time was 900 s, the flow rate was 30 μL/min, and the regeneration contact time was 30 s. After running, Biacore 8K Evaluation Software was used to analyze the data according to the “1:1 binding kinetics model”, and the binding kinetics parameters of each antibody to IL-33 were obtained.

[5] = target: T6, IL-33 mutant protein S60A (human, UniProt O95760 112-270); experiment: ELISA by the method of Example 9 with the IL-33 mutant protein on the plate, 874F7-Hu1 in serial dilution, HRP anti-human IgG Fc, absorbance 450 nm
T6 construct: Prokaryotic expression; also called 560A
T6 chain: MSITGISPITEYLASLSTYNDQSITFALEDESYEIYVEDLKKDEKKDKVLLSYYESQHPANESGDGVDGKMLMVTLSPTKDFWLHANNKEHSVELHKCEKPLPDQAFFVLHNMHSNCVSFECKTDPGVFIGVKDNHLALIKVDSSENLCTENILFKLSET

B1: 874F7-Hu1 (antibody, human IgG4 S228P, kappa)
heavy: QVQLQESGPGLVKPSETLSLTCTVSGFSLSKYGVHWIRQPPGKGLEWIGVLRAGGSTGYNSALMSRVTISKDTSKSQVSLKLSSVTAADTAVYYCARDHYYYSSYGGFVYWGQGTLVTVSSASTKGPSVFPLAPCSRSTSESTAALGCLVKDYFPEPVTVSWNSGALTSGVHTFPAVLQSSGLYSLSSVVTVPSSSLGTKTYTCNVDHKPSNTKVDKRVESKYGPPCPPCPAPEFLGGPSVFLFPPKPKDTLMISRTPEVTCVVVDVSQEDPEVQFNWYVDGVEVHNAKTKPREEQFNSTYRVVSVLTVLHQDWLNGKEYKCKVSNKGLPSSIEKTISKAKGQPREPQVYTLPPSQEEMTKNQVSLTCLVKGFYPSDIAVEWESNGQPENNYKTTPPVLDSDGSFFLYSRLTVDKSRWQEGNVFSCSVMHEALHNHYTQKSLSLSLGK
light: DIQMTQSPSSVSASVGDRVTITCLASQTIGAWLAWYQQKPGKSPKLLIYAATRLADGVPSRFSGSGSGTDFTLTISSLQPEDFATYYCQQLDSSPYTFGQGTKVEIKRTVAAPSVFIFPPSDEQLKSGTASVVCLLNNFYPREAKVQWKVDNALQSGNSQESVTEQDSKDSTYSLSSTLTLSKADYEKHKVYACEVTHQGLSSPVTKSFNRGEC
notes: also called 874F7-Hul; humanized antibody 874F7-Hu1
Affinity decline ratio [1]: 0.6 fold | EC50 [2]: 120 pM | Affinity decline ratio [3]: > 25 fold | EC50 [4]: 120 pM | Kd (Human IL-33-his): 2820 pM | koff (Human IL-33-his): 0.00057 s⁻¹ | kon (Human IL-33-his): 202000 M⁻¹ s⁻¹ | EC50 (read off the curve) [5]: ~1000 pM

Source: US20230399394A1 (SUNSHINE GUOJIAN PHARMACEUTICAL SHANGHAI, published 2023)
